Data taken from the supplement of paper PMC10126150.
± gives the standard deviation of the averaged measurements.

test system: ATP; assay: switch fluorescence ratio, 500 uM ATP over buffer (Cy3 cluster intensity, sum of 5 cycles each) (fold (ratio)); higher = stronger signal-on switching upon ATP binding; sequences stand for … in TCGTCGGCAGCGTCAGATGTGTATAAGAGACAGTTTTTTTTTTTTTTTTTTTTTTTTT…TC; conditions: aptamer strand: ATP DNA aptamer (quencher-CACCTGGGGGAGTATTGCGGAGGAAGG + anchor), 100 nM annealed; ATP concentration: 500 uM
In short: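 The fluorescence ratio divides summed target-cycle Cy3 intensity by summed buffer-cycle Cy3 intensity for each cluster and is averaged per switch-domain sequence. Cy3-labelled switching-strand clusters on a modified Illumina MiSeq flow-cell were annealed to 100 nM quencher-labelled ATP aptamer, then imaged in selection buffer and again after 15 min with 500 uM ATP at 22 °C. Five such cycles were run, with NaOH stripping and re-annealing between them, and clusters outside 100-1000 RFU were excluded.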
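Note: ATP exposure 15 min at 22 °C before imaging.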

Sequence | switch fluorescence ratio
GGGGGGACCG | 0.987 ± 0.032
TATGGTTTAA | 0.975 ± 0.042
AGGCAGTGGG | 0.998 ± 0.028
TGTGTGAGTG | 0.981 ± 0.054
TAGGGTCGG | 1 ± 0.053
CCAGGCTATG | 1.012 ± 0.0047
ATGCAGGTAT | 1.01 ± 0.049
GGATGGAGGT | 1 ± 0.023
GAAGGTGGTG | 0.961 ± 0.032
TTTAGCGCGG | 1 ± 0.029
TCTCATTCAG | 1.06 ± 0.14
GTGGTAGCAC | 1.01 ± 0.025
TAGTTATGTG | 0.9513 ± 0.0043
GGAGGGATAG | 1.26 ± 0.029
ACGGAATGTT | 1.0819 ± 0.00046
GTGACAATTT | 0.998 ± 0.069
TAAGCGAGTG | 0.9832 ± 0.0032
AGGGAGGGGG | 1.01 ± 0.094
GGTTTTGTTT | 0.9996 ± 0.0075
TTGGTGGGGT | 1 ± 0.033
TGCTTAGACT | 1.18 ± 0.27
ATGGATAATT | 1.04 ± 0.011
GTGTCGCGGG | 0.962 ± 0.013

Sequence | switch fluorescence ratio
TTGTGGGGTG | 1.01 ± 0.044
TTGGTGTGGG | 0.986 ± 0.045
TCTTTTAGGC | 1 ± 0.036
ACAAGTATCA | 0.9853 ± 0.0074
ATTCTGCTGG | 1.01 ± 0.013
GTCGAAAGGA | 0.9634 ± 0.0078
TATTGTAGGG | 0.97 ± 0.013
ACATTATAAT | 1.041 ± 0.0056
GCCGTGGGGC | 0.997 ± 0.061
AGTAAAGTGG | 0.971 ± 0.025
CAAAGTACAA | 1.17 ± 0.02
CCCCACTGTG | 1.53 ± 0.69
TGGAGAAGGT | 1.02 ± 0.027
TTATGTTCGA | 1.018 ± 0.005
CGGGTGAATT | 1.01 ± 0.071
CAGTATTTCC | 1.05 ± 0.043
GTCGGCAGGT | 0.994 ± 0.015
TTTTTAATCG | 1.01 ± 0.032
GGGGCCGGTC | 1 ± 0.016
GCACCGGCTA | 1.16 ± 0.23
GATTCTTGTC | 1.01 ± 0.035
TTTTTGTCAT | 0.9912 ± 0.0094
ATGTGGGTTG | 1.03 ± 0.022

Sequence | switch fluorescence ratio
AAAGGAACAG | 1.03 ± 0.017
AAAATAGAGC | 1.05 ± 0.062
GTTTAAACGT | 1.02 ± 0.021
ATTCGGCCTT | 1.01 ± 0.043
GAAATCATTA | 1.016 ± 0.01
TCAAGGGAAA | 1 ± 0.058
CAAGGGAGGG | 0.991 ± 0.047
TGGACCTTTT | 1.64 ± 0.82
ACTGGCAGGG | 1.01 ± 0.028
GACTAATACG | 1.04 ± 0.024
TGTCTTTATT | 0.988 ± 0.016
TCCCCTGTCG | 1.07 ± 0.085
TACTTCATTT | 1.03 ± 0.041
TCATATGAGT | 1 ± 0.051
ATGTAGAGGC | 0.987 ± 0.026
TCGAGACAGG | 1 ± 0.027
AAATCGTATG | 0.974 ± 0.034
TATCAGGTCC | 0.9982 ± 0.0069
GCCGAATTTG | 1.028 ± 0.0068
GAAGTCCTGT | 0.998 ± 0.021
GTGGGGGGTA | 1 ± 0.031
TTACTTACGA | 1.4167 ± 0.00061
AGACTGTTGA | 1.04 ± 0.019

Sequence | switch fluorescence ratio
GTGGCCATTA | 0.995 ± 0.02
GAAGAAAGGT | 0.966 ± 0.064
TTTTTCAGCC | 1.01 ± 0.046
TGACTGTGTG | 0.984 ± 0.017
TGGGTGTGGG | 1.02 ± 0.028
ATAGTCAGAT | 0.969 ± 0.014
ATCACATTCG | 1.02 ± 0.043
GGGATCCCTT | 1.03 ± 0.05
GGTGCGGGCG | 1.02 ± 0.11
CTTTTTGGTA | 0.9975 ± 0.0084
GCTGTGGGTA | 0.989 ± 0.01
ATGTTGGGTT | 0.982 ± 0.031
TCTACAGTCG | 1.02 ± 0.023
CAGCGAGGGG | 1.21 ± 0.32
TTACGTGCAT | 1.01 ± 0.011
TAAACGTATT | 1.14 ± 0.13
GTTGTAGTTG | 0.98387 ± 0.00037
CGTTTTTATT | 1.01 ± 0.015
TTTGACAGGG | 1.02 ± 0.014
ACACAATCAT | 1.02 ± 0.011
TCAGTGTCCG | 0.966 ± 0.038
TTAGTGGATT | 0.9958 ± 0.0073
ATCAGAGCTG | 0.964 ± 0.032

Sequence | switch fluorescence ratio
CTTGGAAGGG | 0.9683 ± 0.006
AATTTGTTTC | 0.972 ± 0.021
AGGGAACCCT | 1.13 ± 0.03
ACGAGAAGGG | 1.02 ± 0.043
TTCACAGCCA | 1.09 ± 0.043
TTTGGGAATA | 1.02 ± 0.02
TTGATGCCCA | 0.97 ± 0.023
AAGTAGGAAA | 0.999 ± 0.013
AAGTTTTTAT | 0.971 ± 0.019
GGGAACGGTA | 0.9955 ± 0.0076
CGCTCTGCGT | 1.01 ± 0.033
CGGGACAGGG | 1 ± 0.013
GACCACGCTG | 1.044 ± 0.0056
ATTTCACGGC | 1.05 ± 0.024
CTTTGTATTC | 1.04 ± 0.022
AGAGGGATCT | 1.022 ± 0.0072
TGGGGTAATG | 0.995 ± 0.038
AAAAAGGTGG | 1.06 ± 0.047
GTATTCAGTA | 0.995 ± 0.022
AGCGATAGTA | 1.07 ± 0.019
AGAAATTTGA | 0.98 ± 0.013
ACCATGTAAG | 0.988 ± 0.035
GGCCAGGGGA | 1.04 ± 0.049

Sequence | switch fluorescence ratio
CGGTTGATCG | 0.918 ± 0.036
GTCCTTTGCC | 1.06 ± 0.011
GTTTTTGTAA | 1.02 ± 0.052
TATGGAGGAG | 0.981 ± 0.017
TTTTTCTAAC | 0.996 ± 0.016
ATTTGAGCGT | 1.02 ± 0.014
ATACCCTGGG | 1.03 ± 0.035
CGGGAGTGTC | 0.89727 ± 0.00075
GGGGTTTGGG | 0.974 ± 0.028
TGCGATAAGC | 1.026 ± 0.01
ATATAGTTCG | 0.967 ± 0.047
AAATTGTTG | 1.022 ± 0.0087
TTCCAAACGG | 0.989 ± 0.014
CTCTGAGGAG | 1.04 ± 0.035
GATCCGGGTG | 1.38 ± 0.45
AAACAGCTTA | 1.05 ± 0.056
GAAAAAGACT | 1.04 ± 0.089
GGTCATTCAA | 0.982 ± 0.027
AAGTTTGAAG | 0.974 ± 0.01
CATGGGTGCG | 1.02 ± 0.014
TTTGTGTATT | 0.97768 ± 0.00065
TGAGGTCAGG | 0.982 ± 0.017
TTGAATGTCA | 0.968 ± 0.019

Sequence | switch fluorescence ratio
CGTAGGGCAG | 0.991 ± 0.049
AACCGTTTTG | 0.979 ± 0.011
CATAGGGCTT | 0.963 ± 0.025
TATACAACGA | 1.03 ± 0.021
GATCAAACGG | 1 ± 0.036
GGCACTGGTA | 0.981 ± 0.022
TATGAATGGG | 1.01 ± 0.021
CAGCGTAGGT | 1.02 ± 0.043
GCTCAAGTGC | 1.07 ± 0.032
AAGTAATTGT | 1.01 ± 0.015
AAAGAGCGTA | 1 ± 0.029
TAGCAGGGTT | 0.9852 ± 0.0061
GATGTGTCTG | 0.999 ± 0.026
GAAGCCGGAA | 1.04 ± 0.021
GAACGTCGGA | 1.028 ± 0.0027
TGCAGCGTTC | 1.27 ± 0.053
TTGACGACGG | 1.01 ± 0.048
CGTCTTGCCC | 0.9853 ± 0.0052
CGGAATGTTT | 1.05 ± 0.057
